According to article PMC9633295 (Cancer Science, 2022):
Numbering of substitutions follows the chain as printed.

Key:
[1] = molecular target: T1, recombinant human CD155-Fc fusion protein, WT (human, UniProt P15151 21-343); test: BLI
T1 sequence (looked up): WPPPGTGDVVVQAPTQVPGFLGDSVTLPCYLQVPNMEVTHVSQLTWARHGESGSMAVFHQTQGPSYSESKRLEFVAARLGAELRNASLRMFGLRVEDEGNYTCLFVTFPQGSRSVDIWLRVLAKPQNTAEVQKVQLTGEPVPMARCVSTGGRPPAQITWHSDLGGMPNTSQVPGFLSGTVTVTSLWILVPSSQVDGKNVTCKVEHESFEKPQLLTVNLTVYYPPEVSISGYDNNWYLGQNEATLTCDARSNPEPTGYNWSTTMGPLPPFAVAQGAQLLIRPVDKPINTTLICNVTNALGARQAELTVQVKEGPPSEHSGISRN

[2] = molecular target: T2, recombinant human CD155-Fc fusion protein, mutant (Ala67Thr) (human, UniProt P15151 21-343, Ala67Thr); test: BLI
T2 sequence (looked up): T1 sequence (looked up) with A47T

- binding result [1]: binds
- binding result [2]: binds
B1: His-tagged recombinant human DNAM-1 (receptor, UniProt Q15762 19-254, looked up)
chain: EEVLWHTSVPFAENMSLECVYPSMGILTQVEWFKIGTQQDSIAIFSPTHGMVIRKPYAERVYFLNSTMASNNMTLFFRNASEDDVGYYSCSLYTYPQGTWQKVIQVVQSDSFEAAVPSNSHIVSEPGKNVTLTCQPQMTWPVQAVRWEKIQPRQIDLLTYCNLVHGRNFTSKFPRQIVSNCSHGRWSVIVIPDVTVSDSGLYRCYLQASAGENETFVMRLTVAEGKTDNQYTLFVA
